Consider 15 molecules from patent US20040086512A1 (THOMAS JEFFERSON UNIVERSITY, published 2004).

The assay concerns the target T1, GST-Vif fusion protein (HIV-1 (HIV-1NL4-3), UniProt P12504 1-192).
T1 construct: range 1-192; Expressed from pGEX in BL21 E. coli, held on glutathione-agarose beads or coated on ELISA plates; also called purified HIV-1 Vif protein; not shown: glutathione-S-transferase encoded by the pGEX vector
Description: phage peptide display, phage ELISA on coated GST-Vif.

T1 sequence (P12504 whole entry, the tested form may be a part): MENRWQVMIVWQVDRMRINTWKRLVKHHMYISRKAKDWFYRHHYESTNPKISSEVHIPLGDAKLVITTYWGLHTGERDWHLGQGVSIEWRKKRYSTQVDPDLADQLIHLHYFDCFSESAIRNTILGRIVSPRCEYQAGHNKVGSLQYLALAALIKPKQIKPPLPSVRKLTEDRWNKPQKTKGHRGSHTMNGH

B1: VMI13 peptide GPPPHHRDYHGP (peptide)
peptide: GPPPHHRDYHGP
notes: 12-mer with PXP motif from the Ph.D.-12 library; also called ID; NO: 17
Consider B1, for which the binding result is given as “binds”.

B2: VMI14 peptide YPAPIKVLLPNS (peptide)
peptide: YPAPIKVLLPNS
notes: 12-mer with PXP motif from the Ph.D.-12 library; also called ID; NO: 18
Regarding B2, the binding result is given as “binds”.

B3: VMI9 peptide LPLPAPSFHRTT (peptide)
peptide: LPLPAPSFHRTT
notes: 12-mer with PXP motif; also called ID; NO: 13
In the case of B3, the binding result is “binds”.

B4: VMI11 peptide TMTPPPTSVRGT (peptide)
peptide: TMTPPPTSVRGT
notes: 12-mer with PXP motif from the Ph.D.-12 library; also called ID; NO: 15
In the case of B4, the binding result is “binds”.

B5: VMI10 peptide YPLPHPMWSMLP (peptide)
peptide: YPLPHPMWSMLP
notes: 12-mer with PXP motif from the Ph.D.-12 library; also called ID; NO: 14
As for B5, the binding result was “binds”.

B6: VMI5 peptide SVSVGMKPSPRP (peptide)
peptide: SVSVGMKPSPRP
notes: 12-mer with PXP motif; also called ID; NO: 9
B6: the binding result is given as “binds”.

B7: VMI7 peptide SNQGGSPLPRSV (peptide)
peptide: SNQGGSPLPRSV
notes: 12-mer with PXP motif; also called VM17; ID; NO: 11
Consider B7, for which the binding result is given as “binds”.

B8: VMI4 peptide SLHWPVSHPPPP (peptide)
peptide: SLHWPVSHPPPP
notes: 12-mer with PXP motif from the Ph.D.-12 library; also called ID; NO: 8
As to B8, the binding result is “binds”.

B9: VMI8 peptide SEPHLPFPVLPH (peptide)
peptide: SEPHLPFPVLPH
notes: 12-mer with PXP motif from the Ph.D.-12 library; also called ID; NO: 12
As to B9, the binding result is on record as “binds”.

B10: VMI12 peptide TPLPTIRGDTGT (peptide)
peptide: TPLPTIRGDTGT
notes: 12-mer with PXP motif from the Ph.D.-12 library; also called ID; NO: 16
As for B10, the binding result was “binds”.

B11: VMI16 peptide SPYPSWSTPAGR (peptide)
peptide: SPYPSWSTPAGR
notes: 12-mer with PXP motif from the Ph.D.-12 library; also called ID; NO: 20
On to B11, for which the binding result was “binds”.

B12: VMI1 peptide SNFASITTPRPH (peptide)
peptide: SNFASITTPRPH
notes: 12-mer with PXP motif from the Ph.D.-12 library; also called ID; NO: 5
With B12, the binding result is reported as “binds”.

B13: VMI15 peptide SPYPMALFPLHN (peptide)
peptide: SPYPMALFPLHN
notes: 12-mer with PXP motif from the Ph.D.-12 library; also called ID; NO: 19
Take B13: the binding result was “binds”.

B14: VMI6 peptide WHSQRLSPVPPA (peptide)
peptide: WHSQRLSPVPPA
notes: 12-mer with PXP motif from the Ph.D.-12 library; also called ID; NO: 10
For the molecule B14, the binding result is “binds”.

B15: VMI2 peptide WPTNPTTVPVPS (peptide)
peptide: WPTNPTTVPVPS
notes: 12-mer with PXP motif from the Ph.D.-12 library; also called ID; NO: 6
For the molecule B15, the binding result is on record as “binds”.
